Measured values taken from paper PMC3479198 (Nucleic Acids Research, 2012).

Biological target: the molecule itself
Assay: electron microscopy

B1: Helicobacter pylori DnaA protein (natural protein, H. pylori, UniProt O26057 1-457, looked up)
chain: MDTNNNIEKEILALVKQNPKVSLIEYENYFSQLKYNPNASKSDIAFFYAPNQVLCTTITAKYGALLKEILSQNKVGMHLAHSVDVRIEVAPKIQINAQSNINYKAIKTSVKDSYTFENFVVGSCNNTVYEIAKKVAQSDTPPYNPVLFYGGTGLGKTHILNAIGNHALEKHKKVVLVTSEDFLTDFLKHLDNKTMDSFKAKYRHCDFFLLDDAQFLQGKPKLEEEFFHTFNELHANSKQIVLISDRSPKNIAGLEDRLKSRFEWGITAKVMPPDLETKLSIVKQKCQLNQITLPEEVMEYIAQHISDNIRQMEGAIIKISVNANLMNASIDLNLAKTVLEDLQKDHAEGSSLENILLAVAQSLNLKSSEIKVSSRQKNVALARKLVVYFARLYTPNPTLSLAQFLDLKDHSSISKMYSGVKKMLEEEKSPFVLSLREEIKNRLNELNDKKTAFNSSE
binding result: binds
